Measurements taken from IntAct's records for PubMed 23001144.

Biological target: tir_eco27 tir (UniProt B7UM99)
Sequence (B7UM99 whole entry): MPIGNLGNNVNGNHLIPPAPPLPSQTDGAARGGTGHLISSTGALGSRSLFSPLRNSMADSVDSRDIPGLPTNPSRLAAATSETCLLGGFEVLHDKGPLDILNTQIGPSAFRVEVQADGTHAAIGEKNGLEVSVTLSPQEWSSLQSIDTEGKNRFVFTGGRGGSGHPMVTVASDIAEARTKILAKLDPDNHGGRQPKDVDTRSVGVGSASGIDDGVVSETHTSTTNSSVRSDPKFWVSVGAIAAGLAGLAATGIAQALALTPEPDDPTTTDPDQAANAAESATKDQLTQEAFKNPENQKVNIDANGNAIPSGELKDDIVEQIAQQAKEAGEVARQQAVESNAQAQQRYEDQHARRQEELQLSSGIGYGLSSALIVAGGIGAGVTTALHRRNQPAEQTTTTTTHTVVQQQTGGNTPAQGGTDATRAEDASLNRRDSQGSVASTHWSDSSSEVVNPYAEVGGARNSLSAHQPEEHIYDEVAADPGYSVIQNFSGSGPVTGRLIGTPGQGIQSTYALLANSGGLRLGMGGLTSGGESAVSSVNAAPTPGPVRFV

Sequence of Tyrosine-protein phosphatase non-receptor type 6 (Homo sapiens), P29350 C453S (P29350 whole entry C453S): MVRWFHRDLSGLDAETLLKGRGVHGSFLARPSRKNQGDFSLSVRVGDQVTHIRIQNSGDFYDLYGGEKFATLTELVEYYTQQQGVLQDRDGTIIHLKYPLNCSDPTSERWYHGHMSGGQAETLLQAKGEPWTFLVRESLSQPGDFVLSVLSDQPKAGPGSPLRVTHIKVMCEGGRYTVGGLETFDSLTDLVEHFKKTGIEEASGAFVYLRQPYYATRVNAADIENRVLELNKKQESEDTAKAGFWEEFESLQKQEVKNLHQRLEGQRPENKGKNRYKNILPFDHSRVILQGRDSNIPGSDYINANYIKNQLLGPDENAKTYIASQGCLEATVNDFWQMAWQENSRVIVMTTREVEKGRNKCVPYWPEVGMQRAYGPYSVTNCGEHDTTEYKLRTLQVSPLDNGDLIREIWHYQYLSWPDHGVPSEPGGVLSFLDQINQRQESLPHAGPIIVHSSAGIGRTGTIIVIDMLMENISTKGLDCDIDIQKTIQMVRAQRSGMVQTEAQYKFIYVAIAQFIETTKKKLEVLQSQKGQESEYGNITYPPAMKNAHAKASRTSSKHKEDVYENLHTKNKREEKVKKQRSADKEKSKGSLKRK

## Tyrosine-protein phosphatase non-receptor type 6 (Homo sapiens), P29350 C453S
  effect of a mutation on the interaction: decreasing interaction
